The labels stand for the following.
B1: β-glucosidase B (BglB) (Paenibacillus polymyxa; L339M) (protein)
chain: MSENTFIFPATFMWGTSTSSYQIEGGTDEGGRTPSIWDTFCQIPGKVIGGDCGDVACDHFHHFKEDVQLMKQLGFLHYRFSVAWPRIMPAAGIINEEGLLFYEHLLDEIELAGLIPMLTLYHWDLPQWIEDEGGWTQRETIQHFKTYASVIMDRFGERINWWNTINEPYCASILGYGTGEHAPGHENWREAFTAAHHILMCHGIASNLHKEKGLTGKIGITLNMEHVDAASERPEDVAAAIRRDGFINRWFAEPLFNGKYPEDMVEWYGTYLNGLDFVQPGDMELIQQPGDFLGINYYTRSIIRSTNDASLLQVEQVHMEEPVTDMGWEIHPESFYKLMTRIEKDFSKGLPILITENGAAMRDELVNGQIEDTGRHGYIEEHLKACHRFIEEGGQLKGYFVWSFLDNFEWAWGYSKRFGIVHINYETQERTPKQSALWFKQMMAKNGF
B2: β-glucosidase B (BglB) (Paenibacillus polymyxa; L339A) (protein)
chain: MSENTFIFPATFMWGTSTSSYQIEGGTDEGGRTPSIWDTFCQIPGKVIGGDCGDVACDHFHHFKEDVQLMKQLGFLHYRFSVAWPRIMPAAGIINEEGLLFYEHLLDEIELAGLIPMLTLYHWDLPQWIEDEGGWTQRETIQHFKTYASVIMDRFGERINWWNTINEPYCASILGYGTGEHAPGHENWREAFTAAHHILMCHGIASNLHKEKGLTGKIGITLNMEHVDAASERPEDVAAAIRRDGFINRWFAEPLFNGKYPEDMVEWYGTYLNGLDFVQPGDMELIQQPGDFLGINYYTRSIIRSTNDASLLQVEQVHMEEPVTDMGWEIHPESFYKLATRIEKDFSKGLPILITENGAAMRDELVNGQIEDTGRHGYIEEHLKACHRFIEEGGQLKGYFVWSFLDNFEWAWGYSKRFGIVHINYETQERTPKQSALWFKQMMAKNGF
B3: β-glucosidase B (BglB) (Paenibacillus polymyxa; L339S) (protein)
chain: MSENTFIFPATFMWGTSTSSYQIEGGTDEGGRTPSIWDTFCQIPGKVIGGDCGDVACDHFHHFKEDVQLMKQLGFLHYRFSVAWPRIMPAAGIINEEGLLFYEHLLDEIELAGLIPMLTLYHWDLPQWIEDEGGWTQRETIQHFKTYASVIMDRFGERINWWNTINEPYCASILGYGTGEHAPGHENWREAFTAAHHILMCHGIASNLHKEKGLTGKIGITLNMEHVDAASERPEDVAAAIRRDGFINRWFAEPLFNGKYPEDMVEWYGTYLNGLDFVQPGDMELIQQPGDFLGINYYTRSIIRSTNDASLLQVEQVHMEEPVTDMGWEIHPESFYKLSTRIEKDFSKGLPILITENGAAMRDELVNGQIEDTGRHGYIEEHLKACHRFIEEGGQLKGYFVWSFLDNFEWAWGYSKRFGIVHINYETQERTPKQSALWFKQMMAKNGF
B4: β-glucosidase B (BglB) (Paenibacillus polymyxa; L339H) (protein)
chain: MSENTFIFPATFMWGTSTSSYQIEGGTDEGGRTPSIWDTFCQIPGKVIGGDCGDVACDHFHHFKEDVQLMKQLGFLHYRFSVAWPRIMPAAGIINEEGLLFYEHLLDEIELAGLIPMLTLYHWDLPQWIEDEGGWTQRETIQHFKTYASVIMDRFGERINWWNTINEPYCASILGYGTGEHAPGHENWREAFTAAHHILMCHGIASNLHKEKGLTGKIGITLNMEHVDAASERPEDVAAAIRRDGFINRWFAEPLFNGKYPEDMVEWYGTYLNGLDFVQPGDMELIQQPGDFLGINYYTRSIIRSTNDASLLQVEQVHMEEPVTDMGWEIHPESFYKLHTRIEKDFSKGLPILITENGAAMRDELVNGQIEDTGRHGYIEEHLKACHRFIEEGGQLKGYFVWSFLDNFEWAWGYSKRFGIVHINYETQERTPKQSALWFKQMMAKNGF
B5: β-glucosidase B (BglB) (Paenibacillus polymyxa; D38E) (protein)
chain: MSENTFIFPATFMWGTSTSSYQIEGGTDEGGRTPSIWETFCQIPGKVIGGDCGDVACDHFHHFKEDVQLMKQLGFLHYRFSVAWPRIMPAAGIINEEGLLFYEHLLDEIELAGLIPMLTLYHWDLPQWIEDEGGWTQRETIQHFKTYASVIMDRFGERINWWNTINEPYCASILGYGTGEHAPGHENWREAFTAAHHILMCHGIASNLHKEKGLTGKIGITLNMEHVDAASERPEDVAAAIRRDGFINRWFAEPLFNGKYPEDMVEWYGTYLNGLDFVQPGDMELIQQPGDFLGINYYTRSIIRSTNDASLLQVEQVHMEEPVTDMGWEIHPESFYKLLTRIEKDFSKGLPILITENGAAMRDELVNGQIEDTGRHGYIEEHLKACHRFIEEGGQLKGYFVWSFLDNFEWAWGYSKRFGIVHINYETQERTPKQSALWFKQMMAKNGF
B6: β-glucosidase B (BglB) (Paenibacillus polymyxa; D38W) (protein)
chain: MSENTFIFPATFMWGTSTSSYQIEGGTDEGGRTPSIWWTFCQIPGKVIGGDCGDVACDHFHHFKEDVQLMKQLGFLHYRFSVAWPRIMPAAGIINEEGLLFYEHLLDEIELAGLIPMLTLYHWDLPQWIEDEGGWTQRETIQHFKTYASVIMDRFGERINWWNTINEPYCASILGYGTGEHAPGHENWREAFTAAHHILMCHGIASNLHKEKGLTGKIGITLNMEHVDAASERPEDVAAAIRRDGFINRWFAEPLFNGKYPEDMVEWYGTYLNGLDFVQPGDMELIQQPGDFLGINYYTRSIIRSTNDASLLQVEQVHMEEPVTDMGWEIHPESFYKLLTRIEKDFSKGLPILITENGAAMRDELVNGQIEDTGRHGYIEEHLKACHRFIEEGGQLKGYFVWSFLDNFEWAWGYSKRFGIVHINYETQERTPKQSALWFKQMMAKNGF

Substrate in the data set: O=[N+]([O-])c1ccc(O[C@@H]2O[C@H](CO)[C@@H](O)[C@H](O)[C@H]2O)cc1
The data set can be described thus: purified protein. Format: biochemical, Paenibacillus polymyxa. Conditions: 0.11-100 mM substrate, readings every minute for 15 min; triplicate.
For the protein B1, the Km (usually the concentration of substrate that gives half-maximal velocity) came out at 4.72 ± 0.82 mM; the kcat (usually the number of substrate molecules converted per active site and unit of time at saturation) turned out to be 6.58 ± 0.302 s⁻¹.
The corresponding values for B2 are 24.3 ± 1.65 mM and 9.47 ± 0.248 s⁻¹.
The corresponding values for B3 are 4.44 ± 0.62 mM and 9.53 ± 0.348 s⁻¹.
The corresponding values for B4 are 3.55 ± 0.26 mM and 11.2 ± 0.222 s⁻¹.
As to B5, the Km was found to be 2.72 ± 0.31 mM and the turnover number (kcat) is 0.272 ± 0.00667 s⁻¹.
For B6, in that order: 2.80 ± 0.55 mM and 0.217 ± 0.01 s⁻¹.

(Values after publication doi:10.1101/2025.05.22.655130v1.)
